Measured values: US20100209956

T1: Lys-plasminogen, P00747
T1 chain: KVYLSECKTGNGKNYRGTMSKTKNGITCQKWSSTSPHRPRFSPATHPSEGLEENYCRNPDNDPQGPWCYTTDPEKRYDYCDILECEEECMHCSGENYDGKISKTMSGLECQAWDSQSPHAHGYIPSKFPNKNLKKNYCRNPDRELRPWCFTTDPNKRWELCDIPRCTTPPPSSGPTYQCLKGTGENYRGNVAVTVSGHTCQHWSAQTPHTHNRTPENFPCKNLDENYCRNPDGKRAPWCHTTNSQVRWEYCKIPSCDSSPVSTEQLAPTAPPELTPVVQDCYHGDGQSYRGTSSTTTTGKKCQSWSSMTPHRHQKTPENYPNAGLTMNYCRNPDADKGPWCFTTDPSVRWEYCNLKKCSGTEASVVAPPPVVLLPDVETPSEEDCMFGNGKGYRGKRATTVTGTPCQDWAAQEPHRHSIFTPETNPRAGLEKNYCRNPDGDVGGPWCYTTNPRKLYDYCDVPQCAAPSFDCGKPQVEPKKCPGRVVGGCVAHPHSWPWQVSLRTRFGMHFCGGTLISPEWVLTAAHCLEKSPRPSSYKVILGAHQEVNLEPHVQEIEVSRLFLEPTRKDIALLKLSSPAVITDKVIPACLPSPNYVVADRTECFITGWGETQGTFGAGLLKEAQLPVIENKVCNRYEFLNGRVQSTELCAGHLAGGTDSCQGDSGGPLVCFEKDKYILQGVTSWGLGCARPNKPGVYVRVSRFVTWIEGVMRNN

B1: tissue-type plasminogen activator (t-PA) (protein)
chain: SYQVICRDEKTQMIYQQHQSWLRPVLRSNRVEYCWCNSGRAQCHSVPVKSCSEPRCFNGGTCQQALYFSDFVCQCPEGFAGKCCEIDTRATCYEDQGISYRGTWSTAESGAECTNWNSSALAQKPYSGRRPDAIRLGLGNHNYCRNPDRDSKPWCYVFKAGKYSSEFCSTPACSEGNSDCYFGNGSAYRGTHSLTESGASCLPWNSMILIGKVYTAQNPSAQALGLGKHNYCRNPDGDAKPWCHVLKNRRLTWEYCDVPSCSTCGLRQYSQPQFRIKGGLFADIASHPWQAAIFAKHRRSPGERFLCGGILISSCWILSAAHCFQERFPPHHLTVILGRTYRVVPGEEEQKFEVEKYIVHKEFDDDTYDNDIALLQLKSDSSRCAQESSVVRTVCLPPADLQLPDWTECELSGYGKHEALSPFYSERLKEAHVRLYPSSRCTSQHLLNRTVTDNMLCAGDTRSGGPQANLHDACQGDSGGPLVCLNDGRMTLVGIISWGLGCGQKDVPGVYTKVTNYLDWIRDNMRP
B2: soluble form of hepsin encompassing the entire extracellular domain (Arg45-Leu417) and a C-terminal His8 tag (protein)
chain 1: RSDQEPLYPVQVSSADARLMVFDKTEGTWRLLCSSRSNARVAGLSCEEMGFLRALTHSELDVRTAGANGTSGFFCVDEGRLPHTQRLLEVISVCDCPRGRFLAAICQDCGRRKLPVDR
chain 2: not shown

Columns and labels:
[1] = target: T1, Lys-plasminogen, P00747
[2] = target: pro-HGF (single-chain hepatocyte growth factor), P14210
Sequence of pro-HGF (single-chain hepatocyte growth factor), P14210 (P14210 32-728): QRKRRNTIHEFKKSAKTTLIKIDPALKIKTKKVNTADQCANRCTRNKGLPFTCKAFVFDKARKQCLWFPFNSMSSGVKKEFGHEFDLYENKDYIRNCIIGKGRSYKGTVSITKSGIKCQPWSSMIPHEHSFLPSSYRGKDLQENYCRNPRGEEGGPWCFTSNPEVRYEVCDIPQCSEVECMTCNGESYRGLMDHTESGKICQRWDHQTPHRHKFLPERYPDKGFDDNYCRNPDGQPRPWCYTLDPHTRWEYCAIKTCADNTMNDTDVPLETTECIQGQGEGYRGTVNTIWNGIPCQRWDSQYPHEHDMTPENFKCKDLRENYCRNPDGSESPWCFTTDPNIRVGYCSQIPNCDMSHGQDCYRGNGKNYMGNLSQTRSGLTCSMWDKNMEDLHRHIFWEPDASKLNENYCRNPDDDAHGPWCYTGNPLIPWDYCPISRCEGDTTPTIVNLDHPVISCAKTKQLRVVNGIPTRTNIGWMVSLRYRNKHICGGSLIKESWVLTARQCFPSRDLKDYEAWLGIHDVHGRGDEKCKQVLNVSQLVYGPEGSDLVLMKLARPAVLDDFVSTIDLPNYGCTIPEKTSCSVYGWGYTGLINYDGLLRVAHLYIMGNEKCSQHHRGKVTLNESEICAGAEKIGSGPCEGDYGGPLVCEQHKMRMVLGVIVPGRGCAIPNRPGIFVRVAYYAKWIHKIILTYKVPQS

| Protein | percent of plasminogen zymogen cleaved after 0.5 h (40 nM t-PA, SDS-PAGE) [1] | enzyme concentration achieving complete conversion of 125I-labelled pro-HGF into two-chain HGF (4 h, 37° C., SDS-PAGE) [2] |
| --- | --- | --- |
| B1 | t-PA efficiently processed plasminogen with about 50% of zymogen already cleaved after 0.5 h |  |
| B2 |  | both enzymes achieving complete conversion of pro-HGF at a concentration of 4-13 nM |
| VQLSPDLLATLPEPASPGRQACGRRHKKRTFLRPR [HGFA (hepatocyte growth factor activator) comprising residues Val373-Arg407] |  | both enzymes achieving complete conversion of pro-HGF at a concentration of 4-13 nM |
